The text below walks through data of IntAct's records for PubMed 20935634.

B1: FAS-associated death domain protein (Homo sapiens), Q13158 (parent)
chain: MDPFLVLLHSVSSSLSSSELTELKFLCLGRVGKRKLERVQSGLDLFSMLLEQNDLEPGHTELLRELLASLRRHDLLRRVDDFEAGAAAGAAPGEEDLCAAFNVICDNVGKDWRRLARQLKVSDTKIDSIEDRYPRNLTERVRESLRIWKNTEKENATVAHLVGALRSCQMNLVADLVQEVQQARDLQNRSGAMSPMSWNSDASTSEAS
B2: Tumor necrosis factor receptor superfamily member 6 (Homo sapiens), P25445-1 (parent)
chain: MLGIWTLLPLVLTSVARLSSKSVNAQVTDINSKGLELRKTVTTVETQNLEGLHHDGQFCHKPCPPGERKARDCTVNGDEPDCVPCQEGKEYTDKAHFSSKCRRCRLCDEGHGLEVEINCTRTQNTKCRCKPNFFCNSTVCEHCDPCTKCEHGIIKECTLTSNTKCKEEGSRSNLGWLCLLLLPIPLIVWVKRKEVQKTCRKHRKENQGSHESPTLNPETVAINLSDVDLSKYITTIAGVMTLSQVKGFVRKNGVNEAKIDEIKNDNVQDTAEQKVQLLRNWHQLHGKKEAYDTLIKDLKKANLCTLAEKIQTIILKDITSDSENSNFRNEIQSLV

In the first test the parent is B1. The settings on record: with FAS.
As to MDPFLVLLHSVSSSLSSSELTELKFLCLGRVGKRKLERVQSGLDLFSMLLEQNDLEPGHTELLRELLASLRRHDLLRRVDDFEAGAAAGAAPGEEDLCAAFNVICDNVGKDWRRLARQLKVSRTKIDSIEDRYPRNLTERVRESLRIWKNTEKENATVAHLVGALRSCQMNLVADLVQEVQQARDLQNRSGAMSPMSWNSDASTSEAS [D123R], the “effect of a mutation on the interaction” value was “disrupting interaction”.
Turning to MDPFLVLLHSVSSSLSSSELTELKFLCLGRVGKRKLERVQSGLDLFSMLLEQNDLEPGHTELLRELLASLRRHDLLRRVDDFEAGAAAGAAPGEEDLCAAFNVICDNVGKDWRRLARQLKVSDTKIDSIEDRYPRNLTERVEESLRIWKNTEKENATVAHLVGALRSCQMNLVADLVQEVQQARDLQNRSGAMSPMSWNSDASTSEAS [R142E], the “effect of a mutation on the interaction” value is “disrupting interaction”.
As to MDPFLVLLHSVSSSLSSSELTELKFLCLGRVGKRKLERVQSGLDLFSMLLEQNDLEPGHTELLRELLASLRRHDLLRRVDDFEAGAAAGAAPGEEDLCAAFNVICDNVGKDWRRLAEQLKVSDTKIDSIEDRYPRNLTERVRESLRIWKNTEKENATVAHLVGALRSCQMNLVADLVQEVQQARDLQNRSGAMSPMSWNSDASTSEAS [R117E], the “effect of a mutation on the interaction” value is recorded as “disrupting interaction”.
MDPFLVLLHSVSSSLSSSELTELKFLCLGRVGKRKLERVQSGLDLFSMLLEQNDLEPGHTELLRELLASLRRHDLLRRVDDFEAGAAAGAAPGEEDLCAAFNVICDNVGKDWRRLARQLKVSDTKIDSIEDRYPENLTERVRESLRIWKNTEKENATVAHLVGALRSCQMNLVADLVQEVQQARDLQNRSGAMSPMSWNSDASTSEAS [R135E]: the “effect of a mutation on the interaction” value is on record as “disrupting interaction”.

In a further test the parent is B1. The settings on record: with FAS. This is another data set of the same source.
Turning to MDPFLVLLHSVSSSLSSSELTELKFLCLGRVGKRKLERVQSGLDLFSMLLEQNDLEPGHTELLRELLASLRRHDLLRRVDDFEAGAAAGAAPGEEDLCAAFNVICDNVGKDWRRLARQLKVSRTKIDSIEDRYPRNLTERVRESLRIWKNTEKENATVAHLVGALRSCQMNLVADLVQEVQQARDLQNRSGAMSPMSWNSDASTSEAS [D123R], the “effect of a mutation on the interaction” value is reported as “decreasing interaction”.
Still for that read-out and setting: under MDPFLVLLHSVSSSLSSSELTELKFLCLGRVGKRKLERVQSGLDLFSMLLEQNDLEPGHTELLRELLASLRRHDLLRRVDDFEAGAAAGAAPGEEDLCAAFNVICDNVGKDWRRLARQLKVSDTKIDSIEDRYPRNLTERVEESLRIWKNTEKENATVAHLVGALRSCQMNLVADLVQEVQQARDLQNRSGAMSPMSWNSDASTSEAS [R142E] stands “decreasing interaction”; under MDPFLVLLHSVSSSLSSSELTELKFLCLGRVGKRKLERVQSGLDLFSMLLEQNDLEPGHTELLRELLASLRRHDLLRRVDDFEAGAAAGAAPGEEDLCAAFNVICDNVGKDWRRLARQLKVSDTKIDSIEDRYPENLTERVRESLRIWKNTEKENATVAHLVGALRSCQMNLVADLVQEVQQARDLQNRSGAMSPMSWNSDASTSEAS [R135E], “decreasing interaction”.

Variants of B2 are the subject of a further test. The settings on record: with fadd_human FADD.
As for MLGIWTLLPLVLTSVARLSSKSVNAQVTDINSKGLELRKTVTTVETQNLEGLHHDGQFCHKPCPPGERKARDCTVNGDEPDCVPCQEGKEYTDKAHFSSKCRRCRLCDEGHGLEVEINCTRTQNTKCRCKPNFFCNSTVCEHCDPCTKCEHGIIKECTLTSNTKCKEEGSRSNLGWLCLLLLPIPLIVWVKRKEVQKTCRKHRKENQGSHESPTLNPETVAINLSDVDLSKYITTIAGVMTLSQVKGFVRKNGVNEAKIVEIKNDNVQDTAEQKVQLLRNWHQLHGKKEAYDTLIKDLKKANLCTLAEKIQTIILKDITSDSENSNFRNEIQSLV [D260V], the “effect of a mutation on the interaction” value is listed as “disrupting interaction strength”.
Still for that read-out and setting: under MLGIWTLLPLVLTSVARLSSKSVNAQVTDINSKGLELRKTVTTVETQNLEGLHHDGQFCHKPCPPGERKARDCTVNGDEPDCVPCQEGKEYTDKAHFSSKCRRCRLCDEGHGLEVEINCTRTQNTKCRCKPNFFCNSTVCEHCDPCTKCEHGIIKECTLTSNTKCKEEGSRSNLGWLCLLLLPIPLIVWVKRKEVQKTCRKHRKENQGSHESPTLNPETVAINLSDVDLSKYITTIAGVMTLSQVKGFVRKNGVNEAKIYEIKNDNVQDTAEQKVQLLRNWHQLHGKKEAYDTLIKDLKKANLCTLAEKIQTIILKDITSDSENSNFRNEIQSLV [D260Y] stands “disrupting interaction strength”; under MLGIWTLLPLVLTSVARLSSKSVNAQVTDINSKGLELRKTVTTVETQNLEGLHHDGQFCHKPCPPGERKARDCTVNGDEPDCVPCQEGKEYTDKAHFSSKCRRCRLCDEGHGLEVEINCTRTQNTKCRCKPNFFCNSTVCEHCDPCTKCEHGIIKECTLTSNTKCKEEGSRSNLGWLCLLLLPIPLIVWVKRKEVQKTCRKHRKENQGSHESPTLNPETVAINLSDVDLSKYITTIAGVMTLSQVKGFVEKNGVNEAKIDEIKNDNVQDTAEQKVQLLRNWHQLHGKKEAYDTLIKDLKKANLCTLAEKIQTIILKDITSDSENSNFRNEIQSLV [R250E], “decreasing interaction”.

A further test covers variants of B2. The note with it: with fadd_human FADD. The source holds these as a separate data set.
For MLGIWTLLPLVLTSVARLSSKSVNAQVTDINSKGLELRKTVTTVETQNLEGLHHDGQFCHKPCPPGERKARDCTVNGDEPDCVPCQEGKEYTDKAHFSSKCRRCRLCDEGHGLEVEINCTRTQNTKCRCKPNFFCNSTVCEHCDPCTKCEHGIIKECTLTSNTKCKEEGSRSNLGWLCLLLLPIPLIVWVKRKEVQKTCRKHRKENQGSHESPTLNPETVAINLSDVDLSKYITTIAGVMTLSQVKGFVRKNGVNEAKIYEIKNDNVQDTAEQKVQLLRNWHQLHGKKEAYDTLIKDLKKANLCTLAEKIQTIILKDITSDSENSNFRNEIQSLV [D260Y], the “effect of a mutation on the interaction” value is reported as “disrupting interaction”.
The same measure, in the same setting: under MLGIWTLLPLVLTSVARLSSKSVNAQVTDINSKGLELRKTVTTVETQNLEGLHHDGQFCHKPCPPGERKARDCTVNGDEPDCVPCQEGKEYTDKAHFSSKCRRCRLCDEGHGLEVEINCTRTQNTKCRCKPNFFCNSTVCEHCDPCTKCEHGIIKECTLTSNTKCKEEGSRSNLGWLCLLLLPIPLIVWVKRKEVQKTCRKHRKENQGSHESPTLNPETVAINLSDVDLSKYITTIAGVMTLSQVKGFVEKNGVNEAKIDEIKNDNVQDTAEQKVQLLRNWHQLHGKKEAYDTLIKDLKKANLCTLAEKIQTIILKDITSDSENSNFRNEIQSLV [R250E] stands “disrupting interaction strength”.
MLGIWTLLPLVLTSVARLSSKSVNAQVTDINSKGLELRKTVTTVETQNLEGLHHDGQFCHKPCPPGERKARDCTVNGDEPDCVPCQEGKEYTDKAHFSSKCRRCRLCDEGHGLEVEINCTRTQNTKCRCKPNFFCNSTVCEHCDPCTKCEHGIIKECTLTSNTKCKEEGSRSNLGWLCLLLLPIPLIVWVKRKEVQKTCRKHRKENQGSHESPTLNPETVAINLSDVDLSKYITTIAGVMTLSQVKGFVQKNGVNEAKIDEIKNDNVQDTAEQKVQLLRNWHQLHGKKEAYDTLIKDLKKANLCTLAEKIQTIILKDITSDSENSNFRNEIQSLV [R250Q]: the “effect of a mutation on the interaction” value is “decreasing interaction strength”.
The same measure, in the same setting: under MLGIWTLLPLVLTSVARLSSKSVNAQVTDINSKGLELRKTVTTVETQNLEGLHHDGQFCHKPCPPGERKARDCTVNGDEPDCVPCQEGKEYTDKAHFSSKCRRCRLCDEGHGLEVEINCTRTQNTKCRCKPNFFCNSTVCEHCDPCTKCEHGIIKECTLTSNTKCKEEGSRSNLGWLCLLLLPIPLIVWVKRKEVQKTCRKHRKENQGSHESPTLNPETVAINLSDVDLSKYITTIAGVMTLSQVKGFVRKNGVNEDKIDEIKNDNVQDTAEQKVQLLRNWHQLHGKKEAYDTLIKDLKKANLCTLAEKIQTIILKDITSDSENSNFRNEIQSLV [A257D] stands “disrupting interaction”; under MLGIWTLLPLVLTSVARLSSKSVNAQVTDINSKGLELRKTVTTVETQNLEGLHHDGQFCHKPCPPGERKARDCTVNGDEPDCVPCQEGKEYTDKAHFSSKCRRCRLCDEGHGLEVEINCTRTQNTKCRCKPNFFCNSTVCEHCDPCTKCEHGIIKECTLTSNTKCKEEGSRSNLGWLCLLLLPIPLIVWVKRKEVQKTCRKHRKENQGSHESPTLNPETVAINLSDVDLSKYITTIAGVMTLSQVKGFVRKNGVNEAKIDKIKNDNVQDTAEQKVQLLRNWHQLHGKKEAYDTLIKDLKKANLCTLAEKIQTIILKDITSDSENSNFRNEIQSLV [E261K], “disrupting interaction”; under MLGIWTLLPLVLTSVARLSSKSVNAQVTDINSKGLELRKTVTTVETQNLEGLHHDGQFCHKPCPPGERKARDCTVNGDEPDCVPCQEGKEYTDKAHFSSKCRRCRLCDEGHGLEVEINCTRTQNTKCRCKPNFFCNSTVCEHCDPCTKCEHGIIKECTLTSNTKCKEEGSRSNLGWLCLLLLPIPLIVWVKRKEVQKTCRKHRKENQGSHESPTLNPETVAINLSDVDLSKYITTIAGVMTLSQVKGFVRKNGVNEAKIDEIKNDNVQDTAEQKVQLLRNWHQLHGDKEAYDTLIKDLKKANLCTLAEKIQTIILKDITSDSENSNFRNEIQSLV [K287D], “disrupting interaction”.
On the same count and under the same terms, under MLGIWTLLPLVLTSVARLSSKSVNAQVTDINSKGLELRKTVTTVETQNLEGLHHDGQFCHKPCPPGERKARDCTVNGDEPDCVPCQEGKEYTDKAHFSSKCRRCRLCDEGHGLEVEINCTRTQNTKCRCKPNFFCNSTVCEHCDPCTKCEHGIIKECTLTSNTKCKEEGSRSNLGWLCLLLLPIPLIVWVKRKEVQKTCRKHRKENQGSHESPTLNPETVAINLSDVDLSKYITTIAGVMTLSQVKGFVRKNGVNEAKIDEIKNDNVQDTAEQKVQLLRNWHKLHGKKEAYDTLIKDLKKANLCTLAEKIQTIILKDITSDSENSNFRNEIQSLV [Q283K] stands “disrupting interaction”.
Same read-out and setting: the result for MLGIWTLLPLVLTSVARLSSKSVNAQVTDINSKGLELRKTVTTVETQNLEGLHHDGQFCHKPCPPGERKARDCTVNGDEPDCVPCQEGKEYTDKAHFSSKCRRCRLCDEGHGLEVEINCTRTQNTKCRCKPNFFCNSTVCEHCDPCTKCEHGIIKECTLTSNTKCKEEGSRSNLGWLCLLLLPIPLIVWVKRKEVQKTCRKHRKENQGSHESPTLNPETVAINLSDVDLSKYITTIAGVMTLSQVKGFVRKNGVNEAKIDEIKNDNVQDKAEQKVQLLRNWHQLHGKKEAYDTLIKDLKKANLCTLAEKIQTIILKDITSDSENSNFRNEIQSLV [T270K] reads “disrupting interaction”; that for MLGIWTLLPLVLTSVARLSSKSVNAQVTDINSKGLELRKTVTTVETQNLEGLHHDGQFCHKPCPPGERKARDCTVNGDEPDCVPCQEGKEYTDKAHFSSKCRRCRLCDEGHGLEVEINCTRTQNTKCRCKPNFFCNSTVCEHCDPCTKCEHGIIKECTLTSNTKCKEEGSRSNLGWLCLLLLPIPLIVWVKRKEVQKTCRKHRKENQGSHESPTLNPETVAINLSDVDLSKYITTIAGVMTLSQVKGFVRKNGVNEAKIDEIKNDNVQDTAKQKVQLLRNWHQLHGKKEAYDTLIKDLKKANLCTLAEKIQTIILKDITSDSENSNFRNEIQSLV [E272K], “disrupting interaction”.
